The supplement of paper PMC10724198
± gives the standard deviation of the averaged measurements.

Tested on: Saccharomyces cerevisiae
Assay: protein stability index of tFT-peptide fusion (C-terminal peptide) (PSI (0-1 scale)); higher = more stable (slower turnover)
Conditions: temperature: 30 C
Description: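 MPS profiling in S. cerevisiae of the yeast C-terminome library: the last 12 aa of each annotated ORF are fused to the C-terminus of a sfGFP-mCherry timer, after a GGGS linker. Cells are FACS-sorted into 8 mCherry/sfGFP bins and deep-sequenced. PSI runs from 0 (unstable) to 1 (stable); wild type and das1Δ backgrounds, two technical replicates each.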

[1] = genetic background: das1 deletion

| Sequence | protein stability index [1] | protein stability index (genetic background: wild type) |
| --- | --- | --- |
| SDILKYILLGSN [SNF4 C-terminal 12 aa] | 0.683 ± 0.0085 | 0.6783 ± 0.0061 |
| SDVAKQLASFGY [RPL16B C-terminal 12 aa] | 0.7021 ± 0.0051 | 0.6663 ± 0.00093 |
| SEEKSNLIEFEA [MDR1 C-terminal 12 aa] | 0.705 ± 0.013 | 0.6734 ± 0.0028 |
| SEFPTCCDQAAI [SLZ1 C-terminal 12 aa] | 0.707 ± 0.01 | 0.721 ± 0.0094 |
| SGGFGGSGSGFI [FUB1 C-terminal 12 aa] | 0.6972 ± 0.0036 | 0.691 ± 0.013 |
| SGLIIAEAGIGG [YAL031W-A C-terminal 12 aa] | 0.7001 ± 0.005 | 0.7129 ± 0.0038 |
| SGVGAALCALVA [EMI2 C-terminal 12 aa] | 0.583 ± 0.0075 | 0.602 ± 0.025 |
| SGYSFNGSYGKS [WHI4 C-terminal 12 aa] | 0.671 ± 0.0029 | 0.659 ± 0.022 |
| SHLFFQLSCSLY [YLL044W C-terminal 12 aa] | 0.685 ± 0.038 | 0.736 ± 0.069 |
| SIDETELAKWNE [PEP3 C-terminal 12 aa] | 0.734 ± 0.063 | 0.7 ± 0.048 |
| SIGLTNLFLYRV [YDR010C C-terminal 12 aa] | 0.715 ± 0.0083 | 0.681 ± 0.01 |
| SIRKKSKYAYAA [TPO1 C-terminal 12 aa] | 0.703 ± 0.012 | 0.642 ± 0.021 |
| SKASLINKLIGN [NTR2 C-terminal 12 aa] | 0.685 ± 0.011 | 0.7 ± 0.013 |
| SKLNNGEIIVID [SRS2 C-terminal 12 aa] | 0.685 ± 0.0081 | 0.702 ± 0.047 |
| SKNILSFFTRKK [RAD30 C-terminal 12 aa] | 0.774 ± 0.025 | 0.673 ± 0.0077 |
| SKNVPALHMGGL [PBS2 C-terminal 12 aa] | 0.6847 ± 0.0027 | 0.6721 ± 0.0054 |
| SKPALGSCLYEL [GAL1 C-terminal 12 aa] | 0.6989 ± 0.0023 | 0.687 ± 0.012 |
| SLGGDVHSRRCS [ROQ1 C-terminal 12 aa] | 0.7013 ± 0.0028 | 0.662 ± 0.018 |
| SLKTFINDVLSF [SLS1 C-terminal 12 aa] | 0.7066 ± 0.0021 | 0.717 ± 0.029 |
| SLLVEDGGNPTA [YPL150W C-terminal 12 aa] | 0.695 ± 0.007 | 0.69 ± 0.026 |
| SLMIFSSFFLYN [YOR139C C-terminal 12 aa] | 0.6872 ± 0.001 | 0.479 ± 0.02 |

| Sequence | protein stability index [1] | protein stability index (genetic background: wild type) |
| --- | --- | --- |
| SLRGCKSVFRRI [HMI1 C-terminal 12 aa] | 0.663 ± 0.0076 | 0.741 ± 0.029 |
| SLSTFPFVYKYL [EST3 C-terminal 12 aa] | 0.749 ± 0.019 | 0.127 ± 0.0095 |
| SNEHSSENTAGP [STE3 C-terminal 12 aa] | 0.696 ± 0.013 | 0.684 ± 0.014 |
| SNLALAGGAFRP [TAF5 C-terminal 12 aa] | 0.711 ± 0.0013 | 0.688 ± 0.016 |
| SPEIDDSSLACH [CTR2 C-terminal 12 aa] | 0.707 ± 0.0085 | 0.6821 ± 0.0044 |
| SQMRPPSQGDKI [DAL82 C-terminal 12 aa] | 0.714 ± 0.024 | 0.675 ± 0.023 |
| SQMTKKRKTKKE [APN1 C-terminal 12 aa] | 0.72 ± 0.015 | 0.786 ± 0.064 |
| SQNGHTSGSENI [LSP1 C-terminal 12 aa] | 0.6941 ± 0.005 | 0.699 ± 0.03 |
| SQSFNPLESVQE [YPL229W C-terminal 12 aa] | 0.7038 ± 0.0039 | 0.709 ± 0.1 |
| SRIKNACLHRMN [RRN7 C-terminal 12 aa] | 0.6966 ± 0.0047 | 0.681 ± 0.035 |
| SRVYAYYLTHEK [NNT1 C-terminal 12 aa] | 0.666 ± 0.007 | 0.67 ± 0.018 |
| SSFEKFQYYSKA [AGP2 C-terminal 12 aa] | 0.72 ± 0.024 | 0.688 ± 0.049 |
| SSLMVIHPLDDT [MID1 C-terminal 12 aa] | 0.6918 ± 0.0012 | 0.695 ± 0.006 |
| SSSYNYNVHKLA [YDR278C C-terminal 12 aa] | 0.6925 ± 0.0039 | 0.134 ± 0.013 |
| STDEKRLVMSLK [IMH1 C-terminal 12 aa] | 0.692 ± 0.042 | 0.709 ± 0.014 |
| STDEKTSENETL [YPR071W C-terminal 12 aa] | 0.6746 ± 0.0056 | 0.656 ± 0.024 |
| STICRDIILIPN [CHK1 C-terminal 12 aa] | 0.688 ± 0.03 | 0.6527 ± 0.0013 |
| STKFEEDQVAPL [ICP55 C-terminal 12 aa] | 0.679 ± 0.007 | 0.686 ± 0.029 |
| STSDSENFMQQH [RPI1 C-terminal 12 aa] | 0.705 ± 0.013 | 0.729 ± 0.049 |
| SVFIASLLLAII [FLO1 C-terminal 12 aa] | 0.31 ± 0.0059 | 0.323 ± 0.021 |
